Reference: patent US20240002531A1 (ONO PHARMACEUTICAL, published 2024)

Columns and labels:
Experiment in all cases: peptide ELISA, OD 655 nm
[1] = target: T1, K615A peptide (HER2 603-622 with K615A) (human)
T1 peptide: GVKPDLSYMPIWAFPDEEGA

[2] = target: T2, HER2 peptide p603-622 (amino acids 603 to 622 of human HER2) (human)
T2 construct: Synthetic peptide; also called wild-type HER2 peptide
T2 peptide: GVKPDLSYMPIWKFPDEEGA

[3] = target: T3, P617A peptide (HER2 603-622 with P617A) (human)
T3 peptide: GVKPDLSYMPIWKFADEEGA

[4] = target: T4, P606A peptide (HER2 603-622 with P606A) (human)
T4 peptide: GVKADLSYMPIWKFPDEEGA

[5] = target: T5, P612A peptide (HER2 603-622 with P612A) (human)
T5 peptide: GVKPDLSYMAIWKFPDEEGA

[6] = target: T6, G621A peptide (HER2 603-622 with G621A) (human)
T6 peptide: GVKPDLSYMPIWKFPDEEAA

[7] = target: T7, M611A peptide (HER2 603-622 with M611A) (human)
T7 peptide: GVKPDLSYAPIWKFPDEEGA

[8] = target: T8, HER2_604-622C peptide (NH2-VKPDLSYMPIWKFPDEEGAC-COOH) (human)
T8 construct: KLH was added for immunisation, the peptide itself was coated in the screening ELISA
T8 peptide: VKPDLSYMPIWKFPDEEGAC

[9] = target: T9, I613A peptide (HER2 603-622 with I613A) (human)
T9 construct: also called 1613A
T9 peptide: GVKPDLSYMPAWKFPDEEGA

[10] = target: T10, V604A peptide (HER2 603-622 with V604A) (human)
T10 peptide: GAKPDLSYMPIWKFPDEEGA

[11] = target: T11, K605A peptide (HER2 603-622 with K605A) (human)
T11 peptide: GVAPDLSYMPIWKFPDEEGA

[12] = target: T12, D607A peptide (HER2 603-622 with D607A) (human)
T12 peptide: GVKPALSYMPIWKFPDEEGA

[13] = target: T13, F616A peptide (HER2 603-622 with F616A) (human)
T13 peptide: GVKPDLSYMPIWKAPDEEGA

[14] = target: T14, L608A peptide (HER2 603-622 with L608A) (human)
T14 peptide: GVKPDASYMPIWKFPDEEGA

[15] = target: T15, G603A peptide (HER2 603-622 with G603A) (human)
T15 peptide: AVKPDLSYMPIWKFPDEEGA

[16] = target: T16, D618A peptide (HER2 603-622 with D618A) (human)
T16 peptide: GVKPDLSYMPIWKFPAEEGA

[17] = target: T17, E619A peptide (HER2 603-622 with E619A) (human)
T17 peptide: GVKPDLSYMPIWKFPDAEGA

[18] = target: T18, S609A peptide (HER2 603-622 with S609A) (human)
T18 peptide: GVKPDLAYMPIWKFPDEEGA

[19] = target: T19, Y610A peptide (HER2 603-622 with Y610A) (human)
T19 peptide: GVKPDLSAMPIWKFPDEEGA

[20] = target: T20, E620A peptide (HER2 603-622 with E620A) (human)
T20 peptide: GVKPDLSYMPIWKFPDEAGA

[21] = target: T21, W614A peptide (HER2 603-622 with W614A) (human)
T21 peptide: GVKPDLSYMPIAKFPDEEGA

B1: H2Mab-280 antibody (antibody, mouse IgG1, kappa, V domains shown)
VH: DVKLVESGGGLVKPGGSLKLSCAASGFTFSSYSMSWVRQTPEKRLEWVAIISSGGSYTFYPDSVKGRFTISRDNAKNTLYLQMSSLKSEDTAMYHCTREAGDYWGQGTTLTVSS
VL: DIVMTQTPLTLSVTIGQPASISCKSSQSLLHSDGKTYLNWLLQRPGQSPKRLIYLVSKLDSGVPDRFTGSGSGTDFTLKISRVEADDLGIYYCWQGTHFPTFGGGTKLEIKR
Q: Does B1 bind [1]?
A: Result: binds

Q: Does B1 bind [2]?
A: Result: binds

Q: Does B1 bind [3]?
A: Result: binds

Q: Does B1 bind [4]?
A: Result: binds

Q: Does B1 bind [5]?
A: Result: binds

Q: Does B1 bind [6]?
A: Result: binds

Q: Does B1 bind [7]?
A: Result: binds

Q: Does B1 bind [8]?
A: Result: binds

Q: Does B1 bind [9]?
A: Result: binds

Q: Does B1 bind [10]?
A: Result: binds

Q: Does B1 bind [11]?
A: Result: binds

Q: Does B1 bind [12]?
A: Result: binds

Q: Does B1 bind [13]?
A: Result: binds

Q: Does B1 bind [14]?
A: Result: binds

Q: Does B1 bind [15]?
A: Result: binds

Q: Does B1 bind [16]?
A: Result: binds

Q: Does B1 bind [17]?
A: Result: binds

Q: Does B1 bind [18]?
A: Result: binds

Q: Does B1 bind [19]?
A: Result: binds

Q: Does B1 bind [20]?
A: Result: binds

Q: Does B1 bind [21]?
A: Result: no binding (tested: 10 ug/ml)

B2: H2Mab-282 antibody (antibody, mouse IgG2a, kappa, V domains shown)
VH: QVQLQQSGAELSRPGASVKMSCKAAGYTFSSYMIHWVKQRPGQGLEWIGYINPSSGYSNYNQKFKDKATLTADKSSSTAYMQLSSLTSEDSAVYYCAFYDYDGDWGQGTLVTVSA
VL: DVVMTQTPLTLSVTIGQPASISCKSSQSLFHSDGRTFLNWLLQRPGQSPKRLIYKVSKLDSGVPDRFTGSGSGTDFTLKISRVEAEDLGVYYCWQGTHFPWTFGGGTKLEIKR
Q: Does B2 bind [1]?
A: Result: binds

Q: Does B2 bind [2]?
A: Result: binds

Q: Does B2 bind [3]?
A: Result: binds

Q: Does B2 bind [4]?
A: Result: binds

Q: Does B2 bind [5]?
A: Result: binds

Q: Does B2 bind [6]?
A: Result: binds

Q: Does B2 bind [7]?
A: Result: binds

Q: Does B2 bind [8]?
A: Result: binds

Q: Does B2 bind [9]?
A: Result: binds

Q: Does B2 bind [10]?
A: Result: binds

Q: Does B2 bind [11]?
A: Result: binds

Q: Does B2 bind [12]?
A: Result: binds

Q: Does B2 bind [13]?
A: Result: no binding (tested: 10 ug/ml)

Q: Does B2 bind [14]?
A: Result: binds

Q: Does B2 bind [15]?
A: Result: binds

Q: Does B2 bind [16]?
A: Result: binds

Q: Does B2 bind [17]?
A: Result: binds

Q: Does B2 bind [18]?
A: Result: binds

Q: Does B2 bind [19]?
A: Result: binds

Q: Does B2 bind [20]?
A: Result: binds

Q: Does B2 bind [21]?
A: Result: binds

B3: H2Mab-279 antibody (antibody, mouse IgG3, V domains shown)
VH: EVQLVESGGGLVQPGGSLKLSCAASGFSFSSYGIFWVRQTPDKRLELVATIKSNGGRTYYPDSVKGRFTISRDNAKNTLHLQMSSLKSEDTAMYYCAREGGDYWGQGTSVTVSS
VL: DIVMTQSHKIMSTSVGDRVSISCKASQDVGTAVAWYQQKPGQSPILLIYWASTRHTGVPDRFTGSGSGTDFTLTISNVQSEDLADYFCQQYKSNPLTFGAGTKLELKR
Q: Does B3 bind [1]?
A: Result: binds

Q: Does B3 bind [2]?
A: Result: binds

Q: Does B3 bind [3]?
A: Result: binds

Q: Does B3 bind [4]?
A: Result: binds

Q: Does B3 bind [5]?
A: Result: binds

Q: Does B3 bind [6]?
A: Result: binds

Q: Does B3 bind [7]?
A: Result: binds

Q: Does B3 bind [8]?
A: Result: binds

Q: Does B3 bind [9]?
A: Result: binds

Q: Does B3 bind [10]?
A: Result: binds

Q: Does B3 bind [11]?
A: Result: binds

Q: Does B3 bind [12]?
A: Result: binds

Q: Does B3 bind [13]?
A: Result: binds

Q: Does B3 bind [14]?
A: Result: binds

Q: Does B3 bind [15]?
A: Result: binds

Q: Does B3 bind [16]?
A: Result: binds

Q: Does B3 bind [17]?
A: Result: binds

Q: Does B3 bind [18]?
A: Result: binds

Q: Does B3 bind [19]?
A: Result: binds

Q: Does B3 bind [20]?
A: Result: binds

Q: Does B3 bind [21]?
A: Result: binds
